This note sets out measurements from patent publication US20230250415.

The test system of data set [1] is alpha2-TALEN-R (Platinum TALEN, TRAC exon 1). Description: cell_activity. Particulars: half-site not delineated.
Data set [2] has as its system alpha2-TALEN-L (Platinum TALEN, TRAC exon 1). Description: cell_activity. The settings on record: half-site not delineated.
[3] abbreviates: 1G4 knock-in efficiency in beta-null Jurkat with alpha2-TALEN pair and modified PITCh vector.
Where [4] appears, read: 1G4 knock-in efficiency in beta-null Jurkat with alpha2-TALEN pair and conventional PITCh vector.

Turning to “GTCTGCCTATTCACCGATTGAAGATTTTGATTCAATGTGTCACAAAGTAAGGA (double strand)”, the activity in data set [1] (setting [3]) and in data set [2] (setting [3]) was 3.5% each time.
Turning to “GTCTGCCTATTCACCGATTGAAGATTTTGATTCAATGTGTCACAAAGTAAGGATTC (double strand)”, the activity in data set [1] (setting [4]) and in data set [2] (setting [4]) was 3.1% each time.
